Assay [1] relates to P. aeruginosa PAO1. The experiment in a line: MIC by agar dilution method. It is filed as cell-based. Particulars: against PAO1; CAA agar with 0.1 mg/ml BSA. The method, then:
(§1) Aliquots of melted CAA (1.5% agar) medium (final volume—25 ml) pre-wormed to 51° C. were supplemented with 0.1 mg/ml BSA and with appropriate amounts of pyocin stock solutions of different concentrations (concentrations lowered by a factor of 2). Aliquots were poured into Petri plates. P. aeruginosa cultures were grown from single colony in CAA medium at 37° C., 200 rpm until OD595=0.2 and diluted to 10^7 CFU/ml in CAA medium. 1 μL of bacteria suspension were applied in three replicates on each test plate. Plates were left to incubate in 37° C. overnight. The determined MIC is a concentration of pyocin, where no confluent bacterial growth is observed.
Background: In agar dilution the substance is mixed into plates at graded concentrations.

Assay [2] concerns P. aeruginosa ATCC 19660. Put plainly: MIC by agar dilution method. The class given is cell-based. As to conditions: against ATCC 19660; CAA agar with 0.1 mg/ml BSA. The method, then: as §1
Assay [3] has as its system P. aeruginosa HP7. The experiment in a line: agar disc-diffusion assay. The class given is cell-based. As to conditions: strain HP7; 0.3, 3 and 30 μg of protein spotted on discs on CAA agar lawn, overnight. An outline of the steps: (§2)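 Bacteria grown overnight in CAA are normalized to OD595=1.0, diluted 100-fold and spread evenly on CAA agar plates. Paper discs carry 0.3-30 μg of chimeric pyocin, and zones of inhibition are examined after an overnight 37° C incubation.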
For orientation: Agar diffusion results depend on both activity and mobility in agar.

Assay [4] has as its system P. aeruginosa HP52. The experiment in a line: agar disc-diffusion assay. The class given is cell-based. Particulars: strain HP52; 0.3, 3 and 30 μg of protein spotted on discs on CAA agar lawn, overnight. An outline of the steps: as §2
Assay [5] concerns P. aeruginosa HP40. The experiment in a line: agar disc-diffusion assay. The class given is cell-based. As to conditions: strain HP40; 0.3, 3 and 30 μg of protein spotted on discs on CAA agar lawn, overnight. An outline of the steps: as §2
Assay [6] deals with P. aeruginosa PA14. The experiment in a line: agar disc-diffusion assay. As to conditions: strain PA14; 0.3, 3 and 30 μg of protein spotted on discs on CAA agar lawn, overnight. The class given is cell-based. An outline of the steps:
as §2

Assay [7] deals with P. aeruginosa ATCC 19660. Put plainly: agar disc-diffusion assay. It is filed as cell-based. As to conditions: strain ATCC 19660; 0.3, 3 and 30 μg of protein spotted on discs on CAA agar lawn, overnight. In outline:
as §2

In assay [8] the test system is P. aeruginosa UR78. The experiment in a line: agar disc-diffusion assay. The class given is cell-based. As to conditions: strain UR78; 0.3, 3 and 30 μg of protein spotted on discs on CAA agar lawn, overnight. In outline:
as §2

Assay [9] concerns P. aeruginosa A19. The experiment in a line: agar disc-diffusion assay. It is filed as cell-based. As to conditions: strain A19; 0.3, 3 and 30 μg of protein spotted on discs on CAA agar lawn, overnight. An outline of the steps: as §2
Assay [10] has as its system P. aeruginosa BL77. The experiment in a line: agar disc-diffusion assay. It is filed as cell-based. Particulars: strain BL77; 0.3, 3 and 30 μg of protein spotted on discs on CAA agar lawn, overnight. In outline: as §2
For assay [11], the system named is P. aeruginosa ATCC 19660. The experiment in a line: murine keratitis model, cytotoxic strain (C57BL/6 mice). Particulars: for viable bacteria isolated, one mouse: only mouse with viable bacteria. It is filed as in vivo. The method, then: The inbred mice of C57BL/6 strain of both sexes in equivalent numbers were used for the research. 2-6 months old, adult female and adult male mice were purchased from the Vilnius University vivarium of laboratory animals. The animals throughout the period of the experiment were given standard chow and drinking water ad libitum. Animals were housed in the individual plastic cages in a 12 h light/dark cycle at 21-23° C. All regulated procedures on living animals were approved by The Lithuanian Ethics Committee of Biomedical Research (Protocol no. B1-442) and were carried out in accordance with the European Union legislation of OECD (directive 2010/63/EU). The experiments were carried out in Biological research center of Lithuanian University of Health Sciences.
For P. aeruginosa infection and keratitis induction the mice were anesthetized by Ketamine and Xylazine 90:9 mg/kg intraperitoneal injection. The cornea of the left eye of each mouse was visualized under a stereoscopic microscope, and three 1 mm scratches were made using a sterile 25 gauge needle. A 10 μL aliquot containing 4×10^6 cells of P. aeruginosa ATCC 19660 (cytotoxic strain) or PAO1 ATCC 15692 (invasive strain) was applied to the corneal surface. Depending on the experiment, the treatment was started 30 min or 6 h post infection. 10 μl aliquot containing 0.14 mg of tobramycin or 20 μg of S5-PmnH (both containing 0.5% hydroxypropyl methylcellulose (HPMC)) or PBS containing 0.5% HPMC was applied as one drop of substance to the each eye. HPMC is used as artificial tears and was used in order to thicken the tears film and prolong the presence of the applied product on the surface of the cornea. The treatment was continued for five days twice daily. Mice were euthanized by cervical dislocation 1, 3, 5 days post infection, and the eyeballs were collected and homogenized for viable bacteria count.
The eyes were examined and photographed with a dissection microscope equipped with a digital camera at 1, 3 and 5 dpi to monitor the disease progression. At 1, 3 and 5 dpi disease severity was visually graded by using an established corneal damage scale: 0, the pupil was partially or fully covered by clear or slight opacity; +1, the anterior segment was partially or fully covered by slight opacity; +2, the pupil was partially or fully covered by dense opacity; +3, the entire anterior segment was covered by dense opacity; and +4, corneal perforation^40.
Histopathology experiments were carried out at Lithuanian University of Health Sciences, Department of Veterinary Pathobiology of Veterinary Academy. One randomly chosen mice of each study group was used for histopathology experiments. Enucleated eyes were preserved in 10% formaldehyde. Eyes were paraffin-embedded, cut into 3-μm-thick sections, deparaffinised, rehydrated and used for preparation of hematoxylin/eosin stained samples.

Where [12] appears, read: treatment started 30 min post infection.
Setting [13] is: treatment started 6 h post infection, 1 dpi.

B1: S5-PmnH (protein)
chain: MSNDNEVPGSMVIVAQGPDDQYAYEVPPIDSAAVAGNMFGDLIQREIYLQKNIYYPVRSIFEQGTKEKKEINKKVSDQVDGLLKQITQGKREATRQERVDVMSAVLHKMESDLEGYKKTFTKGPFIDYEKQSSLSIYEAWVKIWEKNSWEERKKYPFQQLVRDELERAVAYYKQDSLSEAVKVLRQELNKQKALKEKEDLSQLERDYRTRKANLEMKVQSELDQAGSALPPLVSPTPEQWLERATRLVTQAIADKKQLQTTNNTLIKNSPTPLEKQKAIYNGELLVDEIASLQARLVKLNAETTRRRTEKELTPDEKAAYTDAVSFVSTANEQMLQKYGANLSKVAQDMQAEIAGKKVRSYAEAMATFEKISANPAMKLNALDTQAVVDALNALDKASFADNITRLGKAFGVVGKVVQAEAIREKTVSGFQTGDWKPLMLELEAMAVGTGAGILLATSMAFFFPVFASAAAGVVVVALMMAATAAYFDAAKVDEINNLILN
modifications: Chimeric S5-PmnH
On to B1, for which the results for the “MIC determined by agar dilution method” value in [1] and in [2] were 4 µg/mL and 32 µg/mL, respectively. For the same molecule, the “Activity in agar disc-diffusion assay” value is listed as “*** (activity detected with 0.3 μg of protein)” in [3]; “** (activity detected with 3 μg of protein)” in assay [4]; “*** (activity detected with 0.3 μg of protein)” in assay [5]; “*** (activity detected with 0.3 μg of protein)” in [6]; “** (activity detected with 3 μg of protein)” in assay [7]; “*** (activity detected with 0.3 μg of protein)” in [8]. For the same molecule, the “Activity in agar disc-diffusion assay” value is “*** (activity detected with 0.3 μg of protein)” in assay [9] and “** (activity detected with 3 μg of protein)” in assay [10]. Also, the “histopathology of infected treated eyes” value is given as “Only weak oedema in the corneal stroma” in [11] (setting [12]); “signs of acute inflammation of cornea” in assay [11] (setting [13]); “no marked aberrations” in assay [11] (treatment started 6 h post infection, 3 and 5 dpi). For the same molecule, the “signs of disease (visual inspection, clinical score)” value in [11] (setting [12]) is “No signs of disease were observed in majority of samples”. Also, the “viable bacteria isolated from infected eyes” value in [11] (treatment started 30 min post infection, twice daily, 1, 3 or 5 dpi, 20 μg S5-PmnH or 0.14 mg tobramycin per eye) is on record as “no viable P. aeruginosa were isolated”. Further, the clinical score evaluation result in assay [11] (treatment started 6 h post infection, 1 and 3 dpi, two S5-PmnH-treated and one tobramycin-treated mice) is reported as “Only mild disease signs were observed”; in assay [11] (treatment started 6 h post infection, 5 dpi), “all corneas were completely clear”. Further, the “viable bacteria isolated, one mouse” value is recorded as 3.6 log10 CFU/cornea in assay [11] (setting [13]) and 5 log10 CFU/cornea in assay [11] (treatment started 6 h post infection, 3 dpi). The viable bacteria isolated result in assay [11] (treatment started 6 h post infection, 5 dpi, three mice) is on record as “No viable bacteria were isolated”.
